Drawing on the Human Domainome abundance scans (Beltran et al. 2025), this text covers abundance fitness for 167 variants.

The chains are these.
B1: Tyrosine-protein kinase Lck, residues 63 to 120; numbered along this chain, P06239 (parent)
chain: DNLVIALHSYEPSHDGDLGFEKGEQLRILEQSGEWWKAQSLTTGQEGFIPFNFVAKAN
B2: REST corepressor 3, residues 87 to 134; numbered along this chain, Q9P2K3 (parent)
chain: DEWTVEDKVLFEQAFSFHGKSFHRIQQMLPDKTIASLVKYYYSWKKTR

± gives the uncertainty stated by the source.

In one data set the parent is B1. Put plainly: abundance fitness (aPCA) (normalised: wild type 0, dead -1); higher = more abundant; growth selection in yeast, the domain comes from the species named. The following applies: Homo sapiens.
For the variant L7E, the abundance fitness is -0.217 ± 0.11.
For L7A, the abundance fitness was -0.249 ± 0.13.
Same read-out and setting: for L7M the value was -0.097 ± 0.11; for L7F, -0.705 ± 0.17.
As for L7P, the abundance fitness is -0.38 ± 0.15.
For the variant L7I, the abundance fitness is -0.079 ± 0.22.
Regarding L7D, the abundance fitness is -0.486 ± 0.13.
On to L7R, for which the abundance fitness was -0.298 ± 0.084.
As to L7H, the abundance fitness is -0.429 ± 0.28.
Take L7N: the abundance fitness is -0.602 ± 0.3.
On the same count and under the same terms, for L7K the value was -0.232 ± 0.14.
Take L7C: the abundance fitness was -0.357 ± 0.11.
On the same count and under the same terms, under L7Q stands -0.131 ± 0.17; under D1N, -0.115 ± 0.18; under D1V, -0.519 ± 0.13.
Same read-out and setting: under D1A stands -0.337 ± 0.15; under D1M, -0.334 ± 0.29.
On the same count and under the same terms, under D1P stands -0.827 ± 0.32; under D1W, -0.331 ± 0.19; under D1Y, -0.224 ± 0.31.
Consider D1L, for which the abundance fitness is -0.487 ± 0.31.
Still for that read-out and setting: under D1T stands -0.335 ± 0.45; under D1E, -0.036 ± 0.14; under D1G, -0.115 ± 0.12.
For I5M, the abundance fitness was -0.26 ± 0.15.
A6I: the abundance fitness was -0.772 ± 0.15.
With A6G, the abundance fitness was -0.212 ± 0.078.
On to A6V, for which the abundance fitness was -0.556 ± 0.097.
On the same count and under the same terms, for A6S the value was -0.348 ± 0.088.
With A6H, the abundance fitness was -0.756 ± 0.15.
Consider A6Y, for which the abundance fitness was -0.99 ± 0.21.
A6C: the abundance fitness is -0.217 ± 0.14.
The same measure, in the same setting: for A6F the value was -0.907 ± 0.22; for A6K, -0.933 ± 0.28; for A6T, -0.113 ± 0.12.
Still for that read-out and setting: under A6N stands -0.956 ± 0.2; under A6M, -0.637 ± 0.19; under A6P, -0.897 ± 0.16.
Regarding A6L, the abundance fitness was -0.845 ± 0.12.
Regarding A6W, the abundance fitness was -1.2 ± 0.32.
Still for that read-out and setting: for A6E the value was -0.857 ± 0.26.
On the same count and under the same terms, for A6Q the value was -0.84 ± 0.28.
On the same count and under the same terms, under A6D stands -0.907 ± 0.38; under V4N, -0.727 ± 0.35; under V4T, -0.325 ± 0.28.
Take V4H: the abundance fitness is -0.073 ± 0.28.
Still for that read-out and setting: under V4L stands -0.04 ± 0.26; under V4F, -0.054 ± 0.39; under V4R, -0.29 ± 0.2.
Regarding V4M, the abundance fitness was -0.173 ± 0.3.
Consider V4G, for which the abundance fitness was -0.431 ± 0.37.
The same measure, in the same setting: for V4A the value was 0.123 ± 0.38; for N2V, -0.851 ± 0.14; for N2F, 0.034 ± 0.45.
Take N2T: the abundance fitness is -0.157 ± 0.14.
The same measure, in the same setting: under N2W stands -0.526 ± 0.15; under N2R, -0.32 ± 0.088.
The same measure, in the same setting: under N2Y stands -0.243 ± 0.37; under N2Q, -0.174 ± 0.17.
Still for that read-out and setting: under N2G stands -0.428 ± 0.13.
Take N2M: the abundance fitness is -0.075 ± 0.12.
On the same count and under the same terms, for N2S the value was -0.128 ± 0.11; for N2H, 0.146 ± 0.21.
On to N2I, for which the abundance fitness is -0.094 ± 0.25.
Still for that read-out and setting: for N2E the value was -0.541 ± 0.13; for N2D, -0.193 ± 0.12.
On to N2C, for which the abundance fitness is -0.309 ± 0.2.
Still for that read-out and setting: for N2P the value was -0.713 ± 0.38.
For N2L, the abundance fitness is -0.185 ± 0.094.
With L3D, the abundance fitness was -0.503 ± 0.16.
Consider L3V, for which the abundance fitness is -0.212 ± 0.089.
Turning to L3N, the abundance fitness was -0.159 ± 0.26.
The same measure, in the same setting: under L3M stands -0.094 ± 0.12; under L3C, -0.273 ± 0.17; under L3S, -0.343 ± 0.088.
On the same count and under the same terms, under L3R stands -0.178 ± 0.076.
For the variant L3H, the abundance fitness was -0.486 ± 0.17.
Still for that read-out and setting: under L3F stands -0.304 ± 0.14.
Still for that read-out and setting: for L3Q the value was -0.122 ± 0.15; for L3A, -0.79 ± 0.14; for L3T, -0.019 ± 0.11.
Take L3P: the abundance fitness was -0.74 ± 0.25.
Still for that read-out and setting: for L3G the value was -0.768 ± 0.12.
Still for that read-out and setting: for L3Y the value was -0.113 ± 0.17; for L3W, -0.232 ± 0.1.
The same measure, in the same setting: for L3I the value was 0.091 ± 0.14.

In a further data set the parent is B2. Described as above. The conditions noted are these: Homo sapiens.
On to H23Y, for which the abundance fitness was -0.702 ± 0.47.
On the same count and under the same terms, for H23S the value was -0.092 ± 0.17.
Same read-out and setting: under H23D stands -0.517 ± 0.41; under H23G, -0.642 ± 0.17.
With H23E, the abundance fitness is -0.07 ± 0.15.
Same read-out and setting: under F17K stands 0.207 ± 0.14; under F17S, 0.262 ± 0.12.
Take F17T: the abundance fitness was found to be 0.36 ± 0.11.
On the same count and under the same terms, under F17M stands -0.553 ± 0.28; under R48E, 0.016 ± 0.21.
On the same count and under the same terms, for Y41E the value was -0.491 ± 0.41; for Y41F, -0.644 ± 0.32; for Y40V, -0.824 ± 0.32.
Same read-out and setting: under Y40E stands -0.318 ± 0.34.
For the variant Y40C, the abundance fitness was -0.674 ± 0.49.
For the variant L37M, the abundance fitness was -0.711 ± 0.43.
Still for that read-out and setting: for K46T the value was -0.756 ± 0.2; for M28T, -0.461 ± 0.39; for M28P, -0.733 ± 0.31.
As to M28H, the abundance fitness is -0.364 ± 0.44.
On the same count and under the same terms, for S16W the value was -0.568 ± 0.25.
Same read-out and setting: under L29W stands -0.932 ± 0.35; under S43F, -0.577 ± 0.39.
Turning to T33D, the abundance fitness is -0.354 ± 0.28.
As for T33Q, the abundance fitness is -0.658 ± 0.23.
With T33V, the abundance fitness was -0.776 ± 0.2.
Same read-out and setting: for T33C the value was -0.805 ± 0.26; for T33N, -0.508 ± 0.38; for K8T, -0.542 ± 0.32.
Same read-out and setting: for P30L the value was -0.928 ± 0.38.
Still for that read-out and setting: for P30M the value was -0.891 ± 0.48.
In the case of Q27V, the abundance fitness was 0.395 ± 0.082.
With I34C, the abundance fitness was -0.869 ± 0.2.
Take I34A: the abundance fitness is -0.845 ± 0.15.
Same read-out and setting: for I34E the value was -0.455 ± 0.14; for I34D, -0.437 ± 0.4.
With I34S, the abundance fitness is -0.677 ± 0.057.
Still for that read-out and setting: for W3M the value was -0.629 ± 0.39.
On the same count and under the same terms, under I25Y stands -0.522 ± 0.28.
The same measure, in the same setting: for T4R the value was -0.634 ± 0.25.
Turning to T4D, the abundance fitness was -0.53 ± 0.38.
On the same count and under the same terms, under Q26M stands -0.438 ± 0.2; under Q26C, -0.172 ± 0.14.
Same read-out and setting: under Q26S stands -0.79 ± 0.24; under Q26K, 0.249 ± 0.12.
As to K32M, the abundance fitness is -0.799 ± 0.13.
On the same count and under the same terms, under S36M stands -0.288 ± 0.16.
In the case of K45L, the abundance fitness was -0.597 ± 0.25.
For the variant D7A, the abundance fitness is -0.811 ± 0.34.
Turning to D7N, the abundance fitness is -0.821 ± 0.23.
Regarding D7E, the abundance fitness was -0.617 ± 0.34.
Same read-out and setting: under F22M stands -0.55 ± 0.21; under V9L, -0.28 ± 0.19; under V9P, -0.828 ± 0.24.
For the variant V9T, the abundance fitness is -0.024 ± 0.23.
Turning to K39R, the abundance fitness was -0.221 ± 0.097.
Same read-out and setting: for K39C the value was -0.546 ± 0.28; for W44T, -0.394 ± 0.22.
Still for that read-out and setting: for W44A the value was -0.78 ± 0.21.
Take E6A: the abundance fitness is -0.388 ± 0.15.
Same read-out and setting: for K20G the value was -0.278 ± 0.14.
For the variant K20E, the abundance fitness is -0.353 ± 0.33.
Same read-out and setting: for K20M the value was 0.033 ± 0.22; for Q13I, -0.56 ± 0.23.
As for Q13G, the abundance fitness was -0.948 ± 0.23.
Regarding Q13L, the abundance fitness was -0.679 ± 0.18.
Still for that read-out and setting: under D31H stands -0.295 ± 0.3.
On the same count and under the same terms, under D31I stands -0.733 ± 0.43; under D31V, -0.517 ± 0.14.
On to D31S, for which the abundance fitness was determined as 0.225 ± 0.091.
Still for that read-out and setting: for S21H the value was -0.185 ± 0.27; for S21R, 0.233 ± 0.11.
The same measure, in the same setting: for F15V the value was -0.392 ± 0.12; for V38H, -0.723 ± 0.17; for V38W, -0.575 ± 0.15.
As to V38C, the abundance fitness is -0.647 ± 0.17.
V38Q: the abundance fitness was -0.499 ± 0.17.
Same read-out and setting: under V38T stands -0.266 ± 0.09; under V38L, -0.123 ± 0.065.
The same measure, in the same setting: under A35P stands -0.345 ± 0.17; under A35D, -0.391 ± 0.28.
